In publication PMC4140855, “Production of an Attenuated Phenol-Soluble Modulin Variant Unique to the MRSA Clonal Complex 30 Increases Severity of Bloodstream Infection” (PLoS Pathogens, 2014):
Where no end group is shown, it is not given here. The star is where a group is joined. For = O=C*

Experiments:
Experiment in all cases: Ca2+ flux in FPR-transfected HL60 cells, one-site binding model
FPR1 = target: T1, FPR1 (Homo sapiens, UniProt P21462)
T1 chain: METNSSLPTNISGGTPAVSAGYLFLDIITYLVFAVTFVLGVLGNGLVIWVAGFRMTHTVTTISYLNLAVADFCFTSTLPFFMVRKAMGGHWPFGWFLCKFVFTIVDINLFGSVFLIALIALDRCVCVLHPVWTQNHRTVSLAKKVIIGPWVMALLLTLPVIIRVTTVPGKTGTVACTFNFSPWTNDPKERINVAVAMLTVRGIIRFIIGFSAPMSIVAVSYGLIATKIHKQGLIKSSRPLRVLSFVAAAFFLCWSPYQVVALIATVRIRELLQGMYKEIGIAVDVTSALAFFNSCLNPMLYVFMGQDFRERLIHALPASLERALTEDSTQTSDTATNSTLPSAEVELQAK

FPR3 = target: T2, FPR3 (Homo sapiens, UniProt P25089)
T2 chain: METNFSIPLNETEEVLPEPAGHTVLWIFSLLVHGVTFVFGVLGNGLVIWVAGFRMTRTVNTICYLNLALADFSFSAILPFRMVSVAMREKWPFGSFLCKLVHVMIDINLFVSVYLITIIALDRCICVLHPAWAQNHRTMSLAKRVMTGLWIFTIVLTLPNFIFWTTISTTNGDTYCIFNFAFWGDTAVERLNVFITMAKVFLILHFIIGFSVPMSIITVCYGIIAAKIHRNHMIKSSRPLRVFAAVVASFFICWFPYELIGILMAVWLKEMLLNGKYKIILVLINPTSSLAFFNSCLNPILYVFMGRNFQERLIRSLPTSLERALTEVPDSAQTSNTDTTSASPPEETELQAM

FPR2 = target: T3, FPR2 (Homo sapiens, UniProt P25090)
T3 chain: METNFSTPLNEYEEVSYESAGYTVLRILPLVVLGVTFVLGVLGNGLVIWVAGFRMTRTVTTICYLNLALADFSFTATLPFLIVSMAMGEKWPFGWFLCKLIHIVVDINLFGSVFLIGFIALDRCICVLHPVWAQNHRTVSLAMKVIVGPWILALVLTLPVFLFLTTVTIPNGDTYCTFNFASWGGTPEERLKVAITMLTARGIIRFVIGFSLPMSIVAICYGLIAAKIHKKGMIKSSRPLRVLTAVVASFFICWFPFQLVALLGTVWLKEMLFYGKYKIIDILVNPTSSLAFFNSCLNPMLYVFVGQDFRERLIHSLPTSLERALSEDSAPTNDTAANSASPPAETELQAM

Binder: For-MEFVAKLFKFFKDLLGKFLGNN [PSMα3]
- Kd (FPR1): 616 nM
- Kd (FPR3): 1380 nM
- Kd (FPR2): 11.9 nM
